Ends that are not written are not given here.
Target: calmodulin (recombinant bovine CaM) (bovine, UniProt P62157 1-149)
Experiment: fluorescence polarisation

{BODIPY TR‑X}-KKKKKRFSFKKSFKLSGFSFKKNKK [MARCKS effector domain (aa 151-175) labeled with BODIPY TR]
binding result: binds

Source: publication doi:10.1101/2023.05.28.542642 (bioRxiv, 2023)
